B1: McrC endonuclease (enzyme, Escherichia coli, UniProt P15006 1-348, looked up)
chain: MEQPVIPVRNIYYMLTYAWGYLQEIKQANLEAIPGNNLLDILGYVLNKGVLQLSRRGLELDYNPNTEIIPGIKGRIEFAKTIRGFHLNHGKTVSTFDMLNEDTLANRIIKSTLAILIKHEKLNSTIRDEARSLYRKLPGISTLHLTPQHFSYLNGGKNTRYYKFVISVCKFIVNNSIPGQNKGHYRFYDFERNEKEMSLLYQKFLYEFCRRELTSANTTRSYLKWDASSISDQSLNLLPRMETDITIRSSEKILIVDAKYYKSIFSRRMGTEKFHSQNLYQLMNYLWSLKPENGENIGGLLIYPHVDTAVKHRYKINGFDIGLCTVNLGQEWPCIHQELLDIFDEYLK
notes: McrC, endonuclease of the McrBC restriction system, Escherichia coli; Dimer in the complex; Chain N of PDB 6HZ4 holds only residues 193-343 of the second copy; source: E. coli BL21(AI), purified (Ni-NTA, MonoS)

The target of one data set is MantGMPPNP (GNP). Nature of the data set: Mant-nucleotide fluorescence time trace (MantGMPPNP + buffer, then protein added). The settings on record: protein added at about 160 s, signal before protein est. 26000, parent: est. 40000.
Data set [1] deals with the molecule itself. Nature of the data set: cryo-EM structure; McrBΔN and McrC mixed 4:1 with GTP and MgCl2, complex purified by SEC; grids with 4.0 mg/ml McrBΔNC in 10 mM Tris-HCl pH 7.4, 2.0 mM GNP, 0.10 M NaCl, 5.0 mM MgCl2. For orientation: In gel filtration, larger molecules generally elute earlier.
The target of the data set “McrC endonuclease” is B1. The description is as above. The conditions noted are these: both partners purified.
The mark [2] stands for this setting: value is the mean of the trace after addition, read off a plot.

As to “McrB (wild type) (from UniProt P15005) E298A”, in the data set with MantGMPPNP (GNP) (setting [2]), the response was found to be 39000 CPS/µAmps. As to “McrB (wild type) (from UniProt P15005) R349A”, the response in the data set with MantGMPPNP (GNP) (trace hidden under R348A, which the legend says it overlaps, read off a …) is 28000 CPS/µAmps. In the case of “McrB (wild type) (from UniProt P15005) R348A”, the response with MantGMPPNP (GNP) (setting [2]) was determined as 28000 CPS/µAmps.

The stoichiometry N is the number of molecules, sites or subunits per partner or assembly. For B1, in data set [1], the “stoichiometry N” value is 2.

B2: McrBΔN (McrB construct lacking the first 161 residues; AAA+ domain of McrB) (domain or fragment, Escherichia coli, UniProt P15005 162-459, looked up)
chain: MSKTESYCLEDALNDLFIPETTIETILKRLTIKKNIILQGPPGVGKTFVARRLAYLLTGEKAPQRVNMVQFHQSYSYEDFIQGYRPNGVGFRRKDGIFYNFCQQAKEQPEKKYIFIIDEINRANLSKVFGEVMMLMEHDKRGENWSVPLTYSENDEERFYVPENVYIIGLMNTADRSLAVVDYALRRRFSFIDIEPGFDTPQFRNFLLNKKAEPSFVESLCQKMNELNQEISKEATILGKGFRIGHSYFCCGLEDGTSPDTQWLNEIVMTDIAPLLEEYFFDDPYKQQKWTNKLLGDS
notes: McrB, AAA+ GTPase of the McrBC restriction system, Escherichia coli; Forms a hexameric ring in the structure; two rings per tetradecamer; also called McrB∆N; source: E. coli BL21(AI), purified (Ni-NTA, MonoQ, Superdex200)
With B2, the binding result with McrC endonuclease is on record as “binds”.
